Key:
Experiment in all cases: TOX IP-MS, EL4 nuclear extract, MiST
Acot8 = Acot8 (UniProt P58137)
C1qc = C1qc (UniProt Q02105)
Cacybp = Cacybp (UniProt Q9CXW3)
Ccar1 = Ccar1 (UniProt Q8CH18)
Cdc73 = Cdc73 (UniProt Q8JZM7)
Dlst = Dlst (UniProt Q9D2G2)
Dmap1 = Dmap1 (UniProt Q9JI44)
Eif5 = Eif5 (UniProt P59325)
Fxr1 = Fxr1 (UniProt Q61584)
Hcfc1 = Hcfc1 (UniProt Q61191)
Ikbkap = Ikbkap (UniProt Q7TT37)
Kntc1 = Kntc1 (UniProt Q8C3Y4)
Meaf6 = Meaf6 (UniProt Q2VPQ9)
Mrpl46 = Mrpl46 (UniProt Q9EQI8)
Myef2 = Myef2 (UniProt Q8C854)
Nusap1 = Nusap1 (UniProt Q9ERH4)
Orc5 = Orc5 (UniProt Q9WUV0)
Orc5, sequence (Q9WUV0 whole entry): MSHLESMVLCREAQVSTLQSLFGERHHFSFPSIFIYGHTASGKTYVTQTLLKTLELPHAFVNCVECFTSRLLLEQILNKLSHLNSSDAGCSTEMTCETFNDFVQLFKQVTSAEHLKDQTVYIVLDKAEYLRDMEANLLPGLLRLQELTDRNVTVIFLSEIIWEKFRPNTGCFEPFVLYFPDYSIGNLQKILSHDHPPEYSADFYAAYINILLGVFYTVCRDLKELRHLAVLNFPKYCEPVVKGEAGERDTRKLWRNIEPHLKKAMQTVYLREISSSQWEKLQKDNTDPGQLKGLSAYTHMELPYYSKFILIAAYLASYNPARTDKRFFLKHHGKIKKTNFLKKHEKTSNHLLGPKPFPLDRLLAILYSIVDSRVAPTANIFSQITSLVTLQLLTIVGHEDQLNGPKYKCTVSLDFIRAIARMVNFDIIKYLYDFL

Ppa1 = Ppa1 (UniProt Q9D819)
Prrc2c = Prrc2c (UniProt Q3TLH4)
Rcn2 = Rcn2 (UniProt Q8BP92)
Rpl37a = Rpl37a (UniProt P61514)
Sap130 = Sap130 (UniProt Q8BIH0)
Sdcbp = Sdcbp (UniProt O08992)
Sdcbp, sequence (O08992 2-299 limits assumed): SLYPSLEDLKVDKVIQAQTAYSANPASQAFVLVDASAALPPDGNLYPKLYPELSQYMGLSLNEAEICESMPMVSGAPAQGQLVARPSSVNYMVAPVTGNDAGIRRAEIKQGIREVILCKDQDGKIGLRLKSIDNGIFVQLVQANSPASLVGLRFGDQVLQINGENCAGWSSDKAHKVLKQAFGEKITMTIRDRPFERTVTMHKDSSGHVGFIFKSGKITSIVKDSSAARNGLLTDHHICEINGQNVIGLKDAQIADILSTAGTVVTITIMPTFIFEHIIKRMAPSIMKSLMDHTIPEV

Thoc5 = Thoc5 (UniProt Q8BKT7)
Tox4; Tox3 = biological target: Tox4; Tox3
Utp14a = Utp14a (UniProt Q640M1)
Zwilch = Zwilch (UniProt Q8R060)
Zwilch, sequence (Q8R060 whole entry): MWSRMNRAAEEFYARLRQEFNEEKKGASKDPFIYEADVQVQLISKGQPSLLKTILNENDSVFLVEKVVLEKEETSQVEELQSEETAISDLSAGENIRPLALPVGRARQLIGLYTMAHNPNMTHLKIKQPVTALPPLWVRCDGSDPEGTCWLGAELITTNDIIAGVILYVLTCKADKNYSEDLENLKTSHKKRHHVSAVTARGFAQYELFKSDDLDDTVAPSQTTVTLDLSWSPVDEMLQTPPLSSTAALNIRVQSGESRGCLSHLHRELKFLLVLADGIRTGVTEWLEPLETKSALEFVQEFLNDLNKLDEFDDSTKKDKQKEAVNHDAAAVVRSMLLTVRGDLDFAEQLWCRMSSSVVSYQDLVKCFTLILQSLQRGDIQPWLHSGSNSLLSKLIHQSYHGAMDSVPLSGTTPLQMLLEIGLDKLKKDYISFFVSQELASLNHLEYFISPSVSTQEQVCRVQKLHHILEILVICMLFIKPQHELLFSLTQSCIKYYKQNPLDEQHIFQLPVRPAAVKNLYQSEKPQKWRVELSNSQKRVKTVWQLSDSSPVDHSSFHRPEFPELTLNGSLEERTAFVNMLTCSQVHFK

env = biological target: env

Dmap1, sequence (Q9JI44 whole entry): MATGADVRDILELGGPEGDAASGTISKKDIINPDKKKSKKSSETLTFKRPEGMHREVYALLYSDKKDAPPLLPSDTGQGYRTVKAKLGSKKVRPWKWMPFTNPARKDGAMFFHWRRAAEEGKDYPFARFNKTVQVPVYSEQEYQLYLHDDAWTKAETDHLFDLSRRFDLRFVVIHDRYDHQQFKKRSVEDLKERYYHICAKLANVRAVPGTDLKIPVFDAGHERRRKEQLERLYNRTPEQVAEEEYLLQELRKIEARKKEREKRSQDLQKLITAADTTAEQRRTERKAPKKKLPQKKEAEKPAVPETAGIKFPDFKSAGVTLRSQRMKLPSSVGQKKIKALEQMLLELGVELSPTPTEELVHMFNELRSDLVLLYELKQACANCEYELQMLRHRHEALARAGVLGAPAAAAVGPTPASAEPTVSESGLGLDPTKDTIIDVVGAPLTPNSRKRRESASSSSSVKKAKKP
Hcfc1, sequence (Q61191 2-2045 limits assumed): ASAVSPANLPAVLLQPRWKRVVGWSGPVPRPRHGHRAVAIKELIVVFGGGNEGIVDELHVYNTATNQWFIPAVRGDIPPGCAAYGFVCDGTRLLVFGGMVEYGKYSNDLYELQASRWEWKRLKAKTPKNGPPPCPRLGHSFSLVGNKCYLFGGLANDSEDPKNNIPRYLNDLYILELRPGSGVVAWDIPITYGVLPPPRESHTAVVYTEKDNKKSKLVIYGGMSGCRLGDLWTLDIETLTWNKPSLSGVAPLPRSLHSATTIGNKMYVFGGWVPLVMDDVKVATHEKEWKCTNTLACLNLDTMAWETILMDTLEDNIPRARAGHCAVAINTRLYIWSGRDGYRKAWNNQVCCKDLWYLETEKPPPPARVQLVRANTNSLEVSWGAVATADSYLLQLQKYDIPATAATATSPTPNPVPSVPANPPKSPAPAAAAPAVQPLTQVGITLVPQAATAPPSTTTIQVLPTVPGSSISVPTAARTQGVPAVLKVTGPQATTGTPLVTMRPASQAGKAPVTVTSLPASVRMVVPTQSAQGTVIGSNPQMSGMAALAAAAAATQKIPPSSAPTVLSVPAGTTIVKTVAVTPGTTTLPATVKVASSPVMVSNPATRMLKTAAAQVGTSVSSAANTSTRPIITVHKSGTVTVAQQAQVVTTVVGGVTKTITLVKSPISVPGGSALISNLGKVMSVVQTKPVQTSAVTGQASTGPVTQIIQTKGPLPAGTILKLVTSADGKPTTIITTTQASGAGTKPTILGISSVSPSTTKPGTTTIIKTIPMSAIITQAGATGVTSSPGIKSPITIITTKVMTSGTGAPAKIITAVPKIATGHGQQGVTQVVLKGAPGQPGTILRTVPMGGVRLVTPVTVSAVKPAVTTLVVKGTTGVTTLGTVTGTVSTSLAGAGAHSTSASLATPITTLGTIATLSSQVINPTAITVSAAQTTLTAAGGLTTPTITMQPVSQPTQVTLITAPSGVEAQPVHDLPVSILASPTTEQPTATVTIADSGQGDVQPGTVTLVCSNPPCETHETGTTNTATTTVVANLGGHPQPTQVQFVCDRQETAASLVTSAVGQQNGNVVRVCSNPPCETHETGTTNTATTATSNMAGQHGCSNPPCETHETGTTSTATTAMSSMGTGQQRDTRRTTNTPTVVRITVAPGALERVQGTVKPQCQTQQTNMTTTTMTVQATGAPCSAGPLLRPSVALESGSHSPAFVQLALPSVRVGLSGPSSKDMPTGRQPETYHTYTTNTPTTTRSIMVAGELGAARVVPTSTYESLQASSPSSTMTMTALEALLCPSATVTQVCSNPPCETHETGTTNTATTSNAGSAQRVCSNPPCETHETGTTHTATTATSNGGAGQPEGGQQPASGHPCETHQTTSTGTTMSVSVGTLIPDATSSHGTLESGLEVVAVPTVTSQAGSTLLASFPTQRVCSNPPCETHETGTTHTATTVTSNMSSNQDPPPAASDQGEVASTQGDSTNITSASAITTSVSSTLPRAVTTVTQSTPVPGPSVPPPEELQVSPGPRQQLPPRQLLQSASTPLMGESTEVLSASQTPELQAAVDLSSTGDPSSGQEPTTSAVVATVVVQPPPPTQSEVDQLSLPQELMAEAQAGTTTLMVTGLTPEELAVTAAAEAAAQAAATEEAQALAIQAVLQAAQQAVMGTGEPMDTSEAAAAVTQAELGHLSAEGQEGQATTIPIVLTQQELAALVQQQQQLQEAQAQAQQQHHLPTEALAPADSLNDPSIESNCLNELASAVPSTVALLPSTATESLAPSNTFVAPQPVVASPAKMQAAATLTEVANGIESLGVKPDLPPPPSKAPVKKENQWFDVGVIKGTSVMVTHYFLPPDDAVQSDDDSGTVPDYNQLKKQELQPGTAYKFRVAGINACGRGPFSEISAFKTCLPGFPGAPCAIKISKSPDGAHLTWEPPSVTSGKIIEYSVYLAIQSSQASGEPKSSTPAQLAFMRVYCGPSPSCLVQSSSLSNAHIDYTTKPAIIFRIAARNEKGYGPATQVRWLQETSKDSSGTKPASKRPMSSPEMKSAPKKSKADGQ
Eif5, sequence (P59325 whole entry): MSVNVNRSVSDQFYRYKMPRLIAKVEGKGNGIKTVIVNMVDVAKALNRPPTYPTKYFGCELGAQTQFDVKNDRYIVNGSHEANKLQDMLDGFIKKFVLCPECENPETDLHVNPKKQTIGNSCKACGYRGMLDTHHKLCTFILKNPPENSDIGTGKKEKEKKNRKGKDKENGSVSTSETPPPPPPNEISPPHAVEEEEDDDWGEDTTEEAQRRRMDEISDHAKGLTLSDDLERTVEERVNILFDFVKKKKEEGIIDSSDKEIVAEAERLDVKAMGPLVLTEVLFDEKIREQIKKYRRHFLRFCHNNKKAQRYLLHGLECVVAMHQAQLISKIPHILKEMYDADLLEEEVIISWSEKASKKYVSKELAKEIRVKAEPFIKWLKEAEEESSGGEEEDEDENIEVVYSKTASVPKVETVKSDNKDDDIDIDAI
C1qc, sequence (Q02105 30-246 limits assumed): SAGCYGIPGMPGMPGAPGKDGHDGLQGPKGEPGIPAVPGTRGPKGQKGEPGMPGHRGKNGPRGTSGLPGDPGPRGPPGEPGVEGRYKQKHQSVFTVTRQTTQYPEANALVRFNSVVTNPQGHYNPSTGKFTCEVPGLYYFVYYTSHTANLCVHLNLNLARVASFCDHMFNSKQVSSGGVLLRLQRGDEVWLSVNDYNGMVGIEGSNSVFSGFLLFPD
Cacybp, sequence (Q9CXW3 2-229 limits assumed): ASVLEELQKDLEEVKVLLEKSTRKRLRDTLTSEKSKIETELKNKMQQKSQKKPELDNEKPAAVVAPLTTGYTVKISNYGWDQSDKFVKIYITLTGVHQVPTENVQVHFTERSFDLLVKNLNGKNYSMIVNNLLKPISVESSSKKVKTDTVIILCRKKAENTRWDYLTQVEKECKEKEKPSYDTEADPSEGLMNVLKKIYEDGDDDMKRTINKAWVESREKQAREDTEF
Mrpl46, sequence (Q9EQI8 whole entry): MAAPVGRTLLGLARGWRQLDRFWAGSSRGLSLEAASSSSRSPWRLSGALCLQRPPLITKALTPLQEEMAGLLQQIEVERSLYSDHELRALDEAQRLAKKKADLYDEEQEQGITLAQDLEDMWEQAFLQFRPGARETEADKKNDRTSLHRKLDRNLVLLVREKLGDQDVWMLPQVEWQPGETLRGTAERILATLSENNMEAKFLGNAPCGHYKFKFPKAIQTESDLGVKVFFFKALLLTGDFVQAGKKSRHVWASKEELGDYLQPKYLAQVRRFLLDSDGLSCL

Tox (from UniProt Q66JW3 1-526)
Abundance (Acot8): 2.29e-05
MiST Score (Acot8): 0.989
Reproducibility (Acot8): 0.983
Specificity (Acot8): 1
Abundance (C1qc): 0.000821
MiST Score (C1qc): 0.976
Reproducibility (C1qc): 0.943
Specificity (C1qc): 1
Abundance (Cacybp): 3.38e-05
MiST Score (Cacybp): 0.944
Reproducibility (Cacybp): 0.837
Specificity (Cacybp): 1
Abundance (Ccar1): 1.49e-06
MiST Score (Ccar1): 0.962
Reproducibility (Ccar1): 0.897
Specificity (Ccar1): 1
Abundance (Cdc73): 4.06e-05
MiST Score (Cdc73): 0.896
Reproducibility (Cdc73): 0.886
Specificity (Cdc73): 0.908
Abundance (Dlst): 0.000104
MiST Score (Dlst): 0.934
Reproducibility (Dlst): 0.941
Specificity (Dlst): 0.938
Abundance (Dmap1): 6.59e-06
MiST Score (Dmap1): 0.904
Reproducibility (Dmap1): 0.709
Specificity (Dmap1): 1
Abundance (Eif5): 1.08e-05
MiST Score (Eif5): 0.985
Reproducibility (Eif5): 0.971
Specificity (Eif5): 1
Abundance (Fxr1): 1.59e-05
MiST Score (Fxr1): 0.915
Reproducibility (Fxr1): 0.924
Specificity (Fxr1): 0.919
Abundance (Hcfc1): 4.9e-07
MiST Score (Hcfc1): 0.964
Reproducibility (Hcfc1): 0.901
Specificity (Hcfc1): 1
Abundance (Ikbkap): 1.13e-06
MiST Score (Ikbkap): 0.913
Reproducibility (Ikbkap): 0.737
Specificity (Ikbkap): 1
Abundance (Kntc1): 2.82e-06
MiST Score (Kntc1): 0.897
Reproducibility (Kntc1): 0.686
Specificity (Kntc1): 1
Abundance (Meaf6): 5.46e-05
MiST Score (Meaf6): 0.968
Reproducibility (Meaf6): 0.916
Specificity (Meaf6): 1
Abundance (Mrpl46): 3.3e-05
MiST Score (Mrpl46): 0.982
Reproducibility (Mrpl46): 0.962
Specificity (Mrpl46): 1
Abundance (Myef2): 3.8e-06
MiST Score (Myef2): 0.993
Reproducibility (Myef2): 0.998
Specificity (Myef2): 1
Abundance (Nusap1): 2.24e-05
MiST Score (Nusap1): 0.899
Reproducibility (Nusap1): 0.966
Specificity (Nusap1): 0.877
Abundance (Orc5): 2.13e-06
MiST Score (Orc5): 0.985
Reproducibility (Orc5): 0.971
Specificity (Orc5): 1
Abundance (Ppa1): 8.43e-06
MiST Score (Ppa1): 0.994
Reproducibility (Ppa1): 0.999
Specificity (Ppa1): 1
Abundance (Prrc2c): 7.52e-07
MiST Score (Prrc2c): 0.905
Reproducibility (Prrc2c): 0.71
Specificity (Prrc2c): 1
Abundance (Rcn2): 1.4e-05
MiST Score (Rcn2): 0.992
Reproducibility (Rcn2): 0.993
Specificity (Rcn2): 1
Abundance (Rpl37a): 0.00127
MiST Score (Rpl37a): 0.911
Reproducibility (Rpl37a): 0.731
Specificity (Rpl37a): 1
Abundance (Sap130): 5.37e-06
MiST Score (Sap130): 0.971
Reproducibility (Sap130): 0.926
Specificity (Sap130): 1
Abundance (Sdcbp): 5.96e-05
MiST Score (Sdcbp): 0.957
Reproducibility (Sdcbp): 0.88
Specificity (Sdcbp): 1
Abundance (Thoc5): 3.93e-06
MiST Score (Thoc5): 0.987
Reproducibility (Thoc5): 0.977
Specificity (Thoc5): 1
Abundance (Tox4; Tox3): 1.98e-05
MiST Score (Tox4; Tox3): 0.936
Reproducibility (Tox4; Tox3): 0.812
Specificity (Tox4; Tox3): 1
Abundance (Utp14a): 3.2e-06
MiST Score (Utp14a): 0.93
Reproducibility (Utp14a): 0.792
Specificity (Utp14a): 1
Abundance (Zwilch): 6.62e-05
MiST Score (Zwilch): 0.895
Reproducibility (Zwilch): 0.729
Specificity (Zwilch): 0.978
Abundance (env): 0.000113
MiST Score (env): 0.977
Reproducibility (env): 0.946
Specificity (env): 1

Reference: patent US20210071139A1
